In patent US20110177056A1:

Target: EGF receptor (ErbB1) on A431 cells (UniProt P00533)
Experiment: cell-based or functional assay

B1: EGF variant v3 (EGFv3) (ligand)
chain: NSDPKCPLSHEGYCLNDGVCMYIGTLDRYACNCVVGYVGERCQYRDLKLAELR
  pEC50 (phosphoY1068 EGF receptor, MSD electrochemiluminescence, A431 cells): 7.61 pEC50
